Laboratory results published in PMC3657613 (Nature chemical biology, 2012).

Columns and labels:
[1] = molecular target: MC4R Δ1–24 (Homo sapiens, UniProt P32245); test: MC4R activity, cAMP-responsive luciferase reporter in transfected HEK293 cells; assay type: cell-based; conditions: for stimulation of MC4R Δ1–24 by peptide (efficacy): compared with constitutive activity of wild-type MC4R, normalized to membrane expression, triplicate, Fig. 2a
[2] = system: wild-type MC4R; test: as above; assay type: cell-based, human; conditions: constitutive activity; Fig. 1f

MC4R Δ1–24, sequence (P32245 25-332, stated change not applied): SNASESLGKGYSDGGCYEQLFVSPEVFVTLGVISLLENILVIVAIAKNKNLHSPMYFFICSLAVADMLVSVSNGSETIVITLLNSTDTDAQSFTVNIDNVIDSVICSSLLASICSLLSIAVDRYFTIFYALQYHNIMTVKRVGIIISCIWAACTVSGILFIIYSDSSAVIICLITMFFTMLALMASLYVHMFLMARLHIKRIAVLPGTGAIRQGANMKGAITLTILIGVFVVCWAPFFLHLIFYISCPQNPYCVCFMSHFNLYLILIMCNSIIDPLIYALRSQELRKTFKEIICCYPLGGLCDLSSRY

Row | Substance | stimulation of MC4R Δ1–24 by peptide (efficacy) [1] | also measured
1 | Agouti-related protein (SSRRCVRLHESCLGQQVPCCDPCATCYCRFFNAFCYCRKLGTAMNPCSRT; UniProt O00253 83-132, looked up) [AgRP] |  | AgRP antagonism of MC4R 2–26 activation of MC4R Δ1–24 ([1]; Fig. 1f): inhibits the activation of MC4R Δ1–24 by MC4R 2–26 with similar potency as its inverse agonism of the wild-type receptor; effect on residual N terminal–independent constitutive activity of MC4R Δ1–24 ([1]; Supplementary Fig. 3a): inhibits the residual N terminal–independent constitutive activity; inhibition of αMSH-induced receptor activation ([1]; receptor with or without the N-terminal domain, Supplementary Fig. 3e): inhibits αMSH-induced receptor activation independent of the absence or presence of the N-terminal domain; AgRP inverse agonism of wild-type MC4R [2]: inverse agonism of the wild-type receptor
2 | HLWNRS [MC4R 14–19] | not significantly different from the constitutive activity of wild-type MC4R | 
3 | MC4R 2–19: smaller overlapping peptide spanning the MC4R N-terminal domain, residues 2–19 (VNSTHRGMHTSLHLWNRS) | not significantly different from the constitutive activity of wild-type MC4R | 
4 | MC4R 8–20: smaller overlapping peptide spanning the MC4R N-terminal domain, residues 8–20 (GMHTSLHLWNRSS) | not significantly different from the constitutive activity of wild-type MC4R | 
5 | MC4R 8–26: smaller overlapping peptide spanning the MC4R N-terminal domain, residues 8–26 (GMHTSLHLWNRSSYRLHSN) | not significantly different from the constitutive activity of wild-type MC4R | 
6 | MC4R 14–19 H14A: MC4R 14–19 hexapeptide with H14A substitution (ALWNRS) | markedly disrupted MC4R 14–19 efficacy | 
7 | MC4R 14–19 L15A: MC4R 14–19 hexapeptide with L15A substitution (HAWNRS) | not significantly different from the constitutive activity of wild-type MC4R | 
8 | MC4R 14–19 N17A: MC4R 14–19 hexapeptide with N17A substitution (HLWARS) | not significantly different from the constitutive activity of wild-type MC4R | 
9 | MC4R 14–19 R18L: MC4R 14–19 hexapeptide with R18L substitution (HLWNLS) | markedly disrupted MC4R 14–19 efficacy | 
10 | MC4R 14–19 S19A: MC4R 14–19 hexapeptide with S19A substitution (HLWNRA) | not significantly different from the constitutive activity of wild-type MC4R | 
11 | MC4R 14–19 W16A: MC4R 14–19 hexapeptide with W16A substitution (HLANRS) | markedly disrupted MC4R 14–19 efficacy | 
12 | MC4R 14–26: smaller overlapping peptide spanning the MC4R N-terminal domain, residues 14–26 (HLWNRSSYRLHSN) | not significantly different from the constitutive activity of wild-type MC4R | 
